Test results published in patent publication US20250263490A1 (VIB VZW, published 2025).

Legend:
[1] = biological target: T1, recombinant human domain 1-3His6 of the cation-independent mannose-6-phosphate receptor (human, UniProt P11717 41-467); assay: BLI exp 2, dissoc pH 7
T1 construct: Biotinylated (NHS-PEG4-biotin) for BLI; Glycosylated; also called hDom1-3His6; hCI-M6PRD1-D3

[2] = biological target: T1, recombinant human domain 1-3His6 of the …; assay: BLI at pH 7.4, 1st of 2 repeats
Method: (§1) For each of the 11 anti-CI-M6PR VHHs, a biolayer interferometry (BLI) experiment was performed in which the hDom₁₋₃His₆ was biotinylated and coupled to streptavidin biosensor tips. Afterwards, the tips were incubated with serially diluted VHHs during the association phase and dissociation was performed at pH 7.4. Similarly, dissociation was performed at pH 7.0, pH 6.0 and pH 5.0 as well after regeneration of the biosensor tips. […] The anti-CI-M6PR antibody (clone 2G11) and GBP were used as positive and negative controls, respectively.
(§2) Analysis of the binding kinetics was performed using an Octet Red96 (FortéBio) device with Streptavidin SA Biosensor tips (VWR 733-2145). Therefore, 1 mL of human domain₁₋₃His₆ (0.5 mg/mL in 50 mM MES, 150 mM NaCl, pH 6.5) was incubated at room temperature for 30 minutes with EZ-Link™ NHS-PEG4-Biotin (1 mg) (Thermo Fischer A39259) and NaHCO₃ (100 mM). Biotinylated human domain₁₋₃His₆ was purified using a Zeba spin desalting Column™ (7K MWCO, 2 mL, Thermo Fischer 89890) and 1 μg/mL was used for immobilization on the Streptavidin SA Biosensor tips. The loaded tips were dipped into a particular anti-CI-M6PR VHH solution, serially diluted in kinetics buffer (0.2M NaH₂PO₄, 0.1M Na⁺ citrate, 0.01% BSA, 0.002% Tween20, pH 7.4). This was followed by dissociation of the particular anti-CI-M6PR VHH in kinetics buffer of pH 7.4, followed by regeneration in Glycine (10 mM, pH 3) and neutralisation. Same cycle was repeated but the dissociation was performed at pH 7.0, 6.0, 5.0, 4.5 and 4.0. A reference well and reference sensors were subtracted from ligand sensors afterwards and Savitsky-Golay filtering was applied on the data. Fitting of the data was performed using a 1:1 model, grouped per pH of dissociation.

[3] = biological target: T1, recombinant human domain 1-3His6 of the …; assay: ELISA on coated antigen, 1st of 2 repeats
Method: FIGS. 4A-4B. Affinity of anti-CI-M6PR VHHs for recombinant human CI-M6PR Domain 1-3His₆ determined by ELISA. A & B. Measurements for each of the 11 anti-CI-M6PR VHHs in serial dilution binding to the coated human CI-M6PR Domain 1-3His₆ antigen. Detection was performed using an anti-VHH antibody coupled to HRP, and measured as the absorbance of the TMB substrate at 450 nm, correlating to the amount of bound VHH as plotted at the Y-axis. The Log₁₀ concentrations of the serially diluted VHHs were plotted at the X-axis. […] A & B represent replicates but using a different concentration of human CI-M6PR Domain 1-3His₆ (in (FIG. 4A): 0-0.75 μM and in (FIG. 4B): 0-1 μM).
We evaluated the affinity of the VHHs against the hDom₁₋₃His₆ using ELISA. Coated hDom₁₋₃His₆ was incubated with serially diluted VHH that was afterwards detected using an anti-VHH antibody, coupled to HRP.

[4] = biological target: T1, recombinant human domain 1-3His6 of the …; assay: BLI exp 1, dissoc pH 6
Method: as §1, §2

[5] = biological target: T1, recombinant human domain 1-3His6 of the …; assay: BLI exp 2, dissoc pH 5
Method: as §1
(§3) Analysis of the binding kinetics was performed using an Octet Red96 (FortéBio) device with Streptavidin SA Biosensor tips (VWR, 733-2145). To this end, 1 mL of hCI-M6PR_D1-D3 (0.5 mg/mL in 50 mM MES, 150 mM NaCl, pH 6.5) was incubated at room temperature for 30 minutes with a two-fold molar excesses of EZ-Link™ NHS-PEG₄-Biotin (Thermo Fischer, A39259) and NaHCO₃ (100 mM, pH 8.3). Biotinylated hCIMPR_D1-D3 was purified using a Zeba spin desalting column (Thermo Fischer, 89890) and protein concentration was calculated by measuring the absorbance at 280 nm (extinction coefficient 50320 M¹ cm⁻¹). Two-fold biotin-labelled antigen was loaded on the tips (2.5 μg/mL) and subsequently dipped into a particular anti-CI-M6PR VHH-containing solution (ranging from 0-100 nM). Serial VHH dilutions were made in kinetics buffer (0.2 M Na₂HPO₄, 0.1 M Na⁺ citrate, 0.01% BSA, 0.002% Tween20, pH 7.4). After association (100 sec), dissociation was conducted (500 sec) for each anti-CI-M6PR VHH in the kinetics buffer, followed by biosensor regeneration in glycine (10 mM, pH 3) and neutralisation. The same cycle was repeated with dissociation performed in kinetics buffer of pH 7.0, 6.5, 6.0, 5.5, and 5.0.
(§4) A reference well and reference sensors were subtracted from ligand sensors afterwards and Savitsky-Golay filtering was applied on the data. Fitting of the data was performed using a 1:1 model, grouped per dissociation pH.

[6] = biological target: T1, recombinant human domain 1-3His6 of the …; assay: BLI exp 2, dissoc pH 6
Method: as §1, §3, §4

[7] = biological target: T1, recombinant human domain 1-3His6 of the …; assay: BLI exp 1, dissoc pH 5
Method: as §1, §2

B1: anti-CI-M6PR VHH11 (VHH)
VHH: QVQLQESGGGLVQAGDSLKLSCTASGPTFSEITGGWFRQVPGKEREFVASISSTGITTYYTDSVKGRFTVSRDNAKNTMYLQMNSLKPEDTGVYYCAARSTSRSIAITVGYDYWGQGTQVTVSS
notes: His6-tagged; made in Pichia pastoris
B1 was tested, and the koff [1] was 0.00394 s⁻¹, the kon [1] was 194000 M⁻¹ s⁻¹ and the Kd [2] was 41.4 nM. For the same binder, the koff [2] was 0.00317 s⁻¹, the kon [2] was 76700 M⁻¹ s⁻¹ and the EC50 [3] was 0.249 nM. It also gave a Kd [4] of 34.2 nM, a koff [4] of 0.00665 s⁻¹ and a kon [4] of 195000 M⁻¹ s⁻¹. It also gave a koff [5] of 0.0253 s⁻¹, a kon [5] of 225000 M⁻¹ s⁻¹ and a koff [6] of 0.00665 s⁻¹. The kon [6] was 195000 M⁻¹ s⁻¹, the Kd [7] was 113 nM and the koff [7] was 0.0253 s⁻¹. It also gave a kon [7] of 225000 M⁻¹ s⁻¹.
